Data as given in the Immune Epitope Database (IEDB).
pIC50: −log10 of the molar value.

Key:
Test in all cases: IEDB peptide-MHC binding, purified MHC/competitive/radioactivity; ≥ and ≤ were set here for values at or beyond the usual limits of such assays
Conditions in all cases: source organism: Bordetella pertussis
[1] = target: HLA-B*07:02
[2] = target: HLA-A*02:01
[3] = target: HLA-B*53:01
[4] = target: HLA-B*35:01
[5] = target: HLA-B*44:03
[6] = target: HLA-B*57:01

Question: How did the pIC50 [1] turn out when AALGRGHSL was run?
Answer: 4.71

Question: What about the pIC50 [2] of the same sequence?
Answer: 4.49

Question: LASDGSVDF was tested. Which pIC50 [3] did it give?
Answer: 4.64

Question: How did the pIC50 [4] turn out when QITQHGGPY was run?
Answer: 4.36

Question: With PGPTTDYST as the sequence, how does the pIC50 [5] read?
Answer: ≤ 4.11

Question: MIYMSGLAV was tested. Which pIC50 [2] did it give?
Answer: 5.54

Question: How did the pIC50 [4] turn out when QITQHGSPY was run?
Answer: 4.46

Question: How did the pIC50 [3] turn out when HADDGTIVI was run?
Answer: 4.16

Question: With VAVAGGRWH as the sequence, how does the pIC50 [5] read?
Answer: ≤ 4.11

Question: How did the pIC50 [4] turn out when LVFSHVRGM was run?
Answer: 4.70

Question: With EATQQAAGF as the sequence, how does the pIC50 [4] read?
Answer: 4.39

Question: How did the pIC50 [4] turn out when HAQGKALLY was run?
Answer: 6.41

Question: TVQELALKL was tested. Which pIC50 [5] did it give?
Answer: 4.90

Question: With GYEAGFSLG as the sequence, how does the pIC50 [3] read?
Answer: 4.59

Question: How did the pIC50 [6] turn out when ITNETGKTY was run?
Answer: ≤ 4.15

Question: With TSRTVTMRY as the sequence, how does the pIC50 [6] read?
Answer: 6.74

Question: VAMKPYEVT was tested. Which pIC50 [4] did it give?
Answer: 4.16
